Measurements as given in patent US11802878B2, “Protein sequencing method and reagents” (The Governing Council of the University of Toronto, priority 2009, dated 2023).

What was measured:
[1] = tested on: immobilized biotinylated peptide, N-terminal amino acid G (X-SDGMFTAGSLIGK(biotin)); experiment: Phage ELISA, binding to immobilized peptide, N-terminal G
Experimental: (§1) Given the discovery that the specificity pocket library was functionally robust, selections against synthetic peptide ligands were carried out using this library. The specificity pocket library was selected against 20 biotinylated peptides, each with a different N-terminal residue atop a common leader sequence (X-SDGMFTAGSLIGK(biotin)) (SEQ ID NO: 4). The peptides were immobilized individually to the bottom wells of a microtiter plate. […] Consequently, ClpS mutant variants that prefer other residues in addition to the ligand ‘bait’ would bind those competing peptides in solution and simply be washed away. Only selective variants that bound to the immobilized target(s) were amplified during each subsequent round of selection.
(§2) To evaluate the specificity and selectivity of individual clones, both wild-type ClpS and the selected variants' binding to each of the biotinylated peptides independently were tested. The same approach was also used to monitor the progress of the selections and to prioritize particular pools of phage for further investigation.
(§3) Promising single clones were picked from the selection pools and their specificity was evaluated using the same panel of biotinylated peptides and various amounts of phage supernatant. […] Accordingly, Variant 1 represents a selective N-terminal amino acid capture probe for tryptophan useful for the sequencing methods described herein. Variant 1 also represents a useful scaffold for performing further generation and selection of variants with desirable properties for use as additional N-terminal amino acid capture probes.
(§4) The selection and ELISA protocols are very similar. Briefly, each well of a 96-well Maxisorp plate was coated overnight at 4° C. with 100 μl of 10 μg/ml neutravidin in PBS, or 1:500 dilution of anti-FLAG antibody. […]
(§5) For the ELISA readouts, 100 μl of pH adjusted phage supernatant or polyethylene glycol (PEG) precipitated concentrated phage was added to appropriate wells and allowed to bind for 1 hour at 4° C. […] The reaction was stopped by addition of 90 μl of 1M H3PO4 and the absorbance at A450 nm was read.

[2] = tested on: immobilized biotinylated peptide, N-terminal amino acid V (X-SDGMFTAGSLIGK(biotin)); experiment: Phage ELISA, binding to immobilized peptide, N-terminal V
Experimental: as §1, §2, §3, §4, §5

[3] = tested on: immobilized biotinylated peptide, N-terminal amino acid T (X-SDGMFTAGSLIGK(biotin)); experiment: Phage ELISA, binding to immobilized peptide, N-terminal T
Experimental: as §1, §2, §3, §4, §5

[4] = tested on: immobilized biotinylated peptide, N-terminal amino acid F (X-SDGMFTAGSLIGK(biotin)); experiment: Phage ELISA, binding to immobilized peptide, N-terminal F
Experimental: as §1, §2, §3, §4, §5

[5] = tested on: immobilized biotinylated peptide, N-terminal amino acid D (X-SDGMFTAGSLIGK(biotin)); experiment: Phage ELISA, binding to immobilized peptide, N-terminal D
Experimental: as §1, §2, §3, §4, §5

[6] = tested on: immobilized biotinylated peptide, N-terminal amino acid L (X-SDGMFTAGSLIGK(biotin)); experiment: Phage ELISA, binding to immobilized peptide, N-terminal L
Experimental: as §1, §2, §3, §4, §5

[7] = tested on: immobilized biotinylated peptide, N-terminal amino acid P (X-SDGMFTAGSLIGK(biotin)); experiment: Phage ELISA, binding to immobilized peptide, N-terminal P
Experimental: as §1, §2, §3, §4, §5

[8] = tested on: immobilized biotinylated peptide, N-terminal amino acid S (X-SDGMFTAGSLIGK(biotin)); experiment: Phage ELISA, binding to immobilized peptide, N-terminal S
Experimental: as §1, §2, §3, §4, §5

[9] = tested on: immobilized biotinylated peptide, N-terminal amino acid Q (X-SDGMFTAGSLIGK(biotin)); experiment: Phage ELISA, binding to immobilized peptide, N-terminal Q
Experimental: as §1, §2, §3, §4, §5

[10] = tested on: immobilized biotinylated peptide, N-terminal amino acid W (X-SDGMFTAGSLIGK(biotin)); experiment: Phage ELISA, binding to immobilized peptide, N-terminal W
Experimental: as §1, §2, §3, §4, §5

[11] = tested on: immobilized biotinylated peptide, N-terminal amino acid E (X-SDGMFTAGSLIGK(biotin)); experiment: Phage ELISA, binding to immobilized peptide, N-terminal E
Experimental: as §1, §2, §3, §4, §5

[12] = tested on: immobilized biotinylated peptide, N-terminal amino acid C (X-SDGMFTAGSLIGK(biotin)); experiment: Phage ELISA, binding to immobilized peptide, N-terminal C
Experimental: as §1, §2, §3, §4, §5

[13] = tested on: immobilized biotinylated peptide, N-terminal amino acid A (X-SDGMFTAGSLIGK(biotin)); experiment: Phage ELISA, binding to immobilized peptide, N-terminal A
Experimental: as §1, §2, §3, §4, §5

[14] = tested on: panel of 20 biotinylated peptides, each with a different N-terminal residue (X-SDGMFTAGSLIGK(biotin)); experiment: Phage ELISA specificity profile over the panel of biotinylated peptides; format: binding; details: phage displayed; result in words
Experimental: as §1
To evaluate the specificity and selectivity of individual clones, both wild-type ClpS and the selected variants' binding to each of the biotinylated peptides independently were tested. […]
Promising single clones were picked from the selection pools and their specificity was evaluated using the same panel of biotinylated peptides and various amounts of phage supernatant. […]
as §5

[15] = tested on: immobilized biotinylated peptide, N-terminal amino acid Y (X-SDGMFTAGSLIGK(biotin)); experiment: Phage ELISA, binding to immobilized peptide, N-terminal Y
Experimental: as §1, §2, §3, §4, §5

[16] = tested on: immobilized biotinylated peptide, N-terminal amino acid M (X-SDGMFTAGSLIGK(biotin)); experiment: Phage ELISA, binding to immobilized peptide, N-terminal M
Experimental: as §1, §2, §3, §4, §5

[17] = tested on: leucine, phenylalanine, tyrosine and tryptophan N-termini; details: Schuenemann et al. 2009; Tasaki et al. 2009; cited from earlier work

B1: ClpS WT: truncated wildtype E. coli ClpS polypeptide, 84 amino acids, SEQ ID NO: 1, displayed on phage (protein, listed as Escherichia coli)
chain: KPPSMYKVILVNDDYTPMEFVIDVLQKFFSYDVERATQLMLAVHYQGKAICGVFTAEVAETKVAMVNKYARENEHPLLCTLEKA
modifications: phage display
phage ELISA binding signal ([1]; N-terminal G, phage 10X, sub Fab): −0.04 | phage ELISA binding signal ([1]; N-terminal amino acid G, Table 1): −0.04 | phage ELISA binding signal ([2]; N-terminal V, phage 10X, sub Fab): −0.09 | phage ELISA binding signal ([2]; N-terminal amino acid V, Table 1): −0.09 | phage ELISA binding signal ([3]; N-terminal T, phage 10X, sub Fab): 0.01 | phage ELISA binding signal ([3]; N-terminal amino acid T, Table 1): 0.01 | phage ELISA binding signal ([4]; N-terminal F, phage 10X, sub Fab): 1.81 | phage ELISA binding signal ([4]; N-terminal amino acid F, Table 1): 1.81 | phage ELISA binding signal ([5]; N-terminal D, phage 10X, sub Fab): −0.29 | phage ELISA binding signal ([5]; N-terminal amino acid D, Table 1): −0.29 | phage ELISA binding signal ([6]; N-terminal L, phage 10X, sub Fab): 1.57 | phage ELISA binding signal ([6]; N-terminal amino acid L, Table 1): 1.57 | phage ELISA binding signal ([7]; N-terminal P, phage 10X, sub Fab): −0.07 | phage ELISA binding signal ([7]; N-terminal amino acid P, Table 1): −0.07 | phage ELISA binding signal ([8]; N-terminal S, phage 10X, sub Fab): −0.01 | phage ELISA binding signal ([8]; N-terminal amino acid S, Table 1): −0.01 | phage ELISA binding signal ([9]; N-terminal Q, phage 10X, sub Fab): −0.18 | phage ELISA binding signal ([9]; N-terminal amino acid Q, Table 1): −0.18 | phage ELISA binding signal ([10]; N-terminal W, phage 10X, sub Fab): 0.77 | phage ELISA binding signal ([10]; N-terminal amino acid W, Table 1): 0.77 | phage ELISA binding signal ([11]; N-terminal E, phage 10X, sub Fab): −0.26 | phage ELISA binding signal ([11]; N-terminal amino acid E, Table 1): −0.26 | phage ELISA binding signal ([12]; N-terminal C, phage 10X, sub Fab): −0.23 | phage ELISA binding signal ([12]; N-terminal amino acid C, Table 1): −0.23 | phage ELISA binding signal ([13]; N-terminal A, phage 10X, sub Fab): −0.29 | phage ELISA binding signal ([13]; N-terminal amino acid A, Table 1): −0.29 | binding specificity / preference for N-terminal amino acids [14]: clear preference for Leu, Tyr, Phe and, more weakly, Trp peptides | phage ELISA binding signal ([15]; N-terminal Y, phage 10X, sub Fab): 1.08 | phage ELISA binding signal ([15]; N-terminal amino acid Y, Table 1): 1.08 | phage ELISA binding signal ([16]; N-terminal M, phage 10X, sub Fab): −0.11 | phage ELISA binding signal ([16]; N-terminal amino acid M, Table 1): −0.11 | affinities [17]: single-digit micromolar to nanomolar
